Some targets named below: PICK1, Q9NRD5; LDB3, O75112; PDLIM1, O00151; DLG2_2, Q15700; Inadl_3, Q8NI35; MAST2, Q6P0Q8; GRIP2_7, Q9C0E4; DLG2_3, Q15700; Inadl_4, Q8NI35; GIPC2, Q8TF65; SCRIB_1, Q14160; LNX1_2, Q8TBB1; Inadl_1, Q8NI35; HTRA2, O43464; ARHGEF12, Q9NZN5-2.
Holding throughout (assay): holdup assay
Parameters in all cases: key: below the threshold = too weak to quantify, mostly under pKd 3.1 to 4

For a further assay, the target named is T1, GRIP1_4, Q9Y3R0.
T1 sequence (Q9Y3R0 467-571, limits assumed, looked up): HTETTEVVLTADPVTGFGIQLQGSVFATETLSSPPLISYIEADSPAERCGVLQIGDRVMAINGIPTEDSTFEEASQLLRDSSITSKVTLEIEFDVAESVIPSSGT

The target of the next assay is T2, MPDZ_12, O75970.
T2 sequence (O75970 1857-1958, limits assumed, looked up): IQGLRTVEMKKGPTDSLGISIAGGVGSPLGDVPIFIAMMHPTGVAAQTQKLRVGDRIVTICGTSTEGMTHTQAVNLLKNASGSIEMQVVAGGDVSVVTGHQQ

Another assay addresses T3, APBA2_1, Q99767.
T3 sequence (Q99767 563-664, limits assumed, looked up): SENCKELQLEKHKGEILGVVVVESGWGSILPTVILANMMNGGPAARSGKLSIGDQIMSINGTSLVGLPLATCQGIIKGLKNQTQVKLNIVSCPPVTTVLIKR

For another assay, the target named is T4, ARHGEF11, O15085.
T4 sequence (O15085 42-136, limits assumed, looked up): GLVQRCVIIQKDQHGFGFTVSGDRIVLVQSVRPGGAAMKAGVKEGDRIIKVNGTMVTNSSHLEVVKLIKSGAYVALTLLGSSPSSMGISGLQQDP

In another assay the target is T5, GRIP1_2, Q9Y3R0.
T5 sequence (Q9Y3R0 145-248, limits assumed, looked up): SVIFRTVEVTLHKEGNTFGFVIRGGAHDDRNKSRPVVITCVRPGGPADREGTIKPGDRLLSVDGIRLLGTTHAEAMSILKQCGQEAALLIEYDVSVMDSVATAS

The target in a further assay is T6, SNTA1, Q13424.
T6 sequence (Q13424 82-180, limits assumed, looked up): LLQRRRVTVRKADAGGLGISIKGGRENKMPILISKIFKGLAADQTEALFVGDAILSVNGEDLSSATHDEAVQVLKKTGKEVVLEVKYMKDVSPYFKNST

In another assay the target is T7, SIPA1L2, Q9P2F8.
T7 sequence (Q9P2F8 945-1036, limits assumed, looked up): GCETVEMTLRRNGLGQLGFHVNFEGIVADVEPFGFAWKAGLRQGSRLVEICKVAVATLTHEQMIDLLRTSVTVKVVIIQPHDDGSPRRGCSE

A further assay deals with T8, PDZD7_3, Q9H5P4.
T8 sequence (Q9H5P4 857-944, limits assumed, looked up): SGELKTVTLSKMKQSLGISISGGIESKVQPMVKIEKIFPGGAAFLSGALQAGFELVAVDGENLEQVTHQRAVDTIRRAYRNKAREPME

Another assay deals with T9, LNX2_2, Q8N448.
T9 sequence (Q8N448 334-432, limits assumed, looked up): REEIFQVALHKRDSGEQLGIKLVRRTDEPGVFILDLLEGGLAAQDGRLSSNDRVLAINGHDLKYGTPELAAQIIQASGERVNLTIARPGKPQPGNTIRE

The next assay has as its target T10, GRIP1_3, Q9Y3R0.
T10 sequence (Q9Y3R0 247-346, limits assumed, looked up): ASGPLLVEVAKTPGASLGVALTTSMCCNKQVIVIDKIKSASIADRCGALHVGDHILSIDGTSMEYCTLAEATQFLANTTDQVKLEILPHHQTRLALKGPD

For another assay, the target named is T11, PTPN13_1, Q12923.
T11 sequence (Q12923 1088-1188, limits assumed, looked up): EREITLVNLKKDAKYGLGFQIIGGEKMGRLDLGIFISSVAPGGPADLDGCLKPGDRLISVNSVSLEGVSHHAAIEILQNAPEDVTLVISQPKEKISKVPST

For a further assay, the target named is GOPC, Q9HD26. To be noted: plain residues with an end cap or a label only (N-terminal biotin on a linker: ado-ado).
The mark [1] stands for this setting: modified: phospho on T at position -2 from the C-terminal residue.
Setting [2] is: plain residues with an end cap or a label only (N-terminal biotin on a linker: ado-ado).

We go through four molecules from paper PMC9482650, “Quantitative fragmentomics allow affinity mapping of interactomes” (Nature Communications, 2022).

Chain of Inadl_1, Q8NI35 (Q8NI35 113-229): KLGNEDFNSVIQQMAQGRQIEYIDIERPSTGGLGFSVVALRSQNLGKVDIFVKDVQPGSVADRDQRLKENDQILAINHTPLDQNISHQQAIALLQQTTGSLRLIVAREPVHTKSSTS
Chain of Inadl_3, Q8NI35 (Q8NI35 359-469): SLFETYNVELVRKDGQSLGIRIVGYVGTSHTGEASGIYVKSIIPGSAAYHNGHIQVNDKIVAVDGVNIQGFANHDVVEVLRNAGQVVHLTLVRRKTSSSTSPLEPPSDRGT
Chain of LNX1_2, Q8TBB1 (Q8TBB1 371-470): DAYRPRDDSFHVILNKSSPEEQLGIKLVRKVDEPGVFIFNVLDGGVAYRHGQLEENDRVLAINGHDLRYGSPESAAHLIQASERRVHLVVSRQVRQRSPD
Chain of GRIP2_7, Q9C0E4 (Q9C0E4 934-1023): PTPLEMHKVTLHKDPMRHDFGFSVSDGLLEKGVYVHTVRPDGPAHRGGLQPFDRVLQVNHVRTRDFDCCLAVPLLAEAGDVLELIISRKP
Chain of HTRA2, O43464 (O43464 355-458): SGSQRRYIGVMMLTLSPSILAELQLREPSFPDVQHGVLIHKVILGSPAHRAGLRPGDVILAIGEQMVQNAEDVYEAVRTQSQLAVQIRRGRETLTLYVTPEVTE
Chain of Inadl_4, Q8NI35 (Q8NI35 547-651): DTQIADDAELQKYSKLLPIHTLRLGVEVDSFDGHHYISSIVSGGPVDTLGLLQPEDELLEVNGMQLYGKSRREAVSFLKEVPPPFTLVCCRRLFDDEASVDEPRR
Chain of PDLIM1, O00151 (O00151 1-87): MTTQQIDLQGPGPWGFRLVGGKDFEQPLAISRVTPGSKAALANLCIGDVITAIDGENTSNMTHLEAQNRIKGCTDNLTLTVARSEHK
Chain of PICK1, Q9NRD5 (Q9NRD5 17-115): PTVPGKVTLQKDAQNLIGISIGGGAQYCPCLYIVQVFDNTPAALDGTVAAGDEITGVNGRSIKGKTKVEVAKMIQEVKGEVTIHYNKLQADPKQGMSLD
Chain of ARHGEF12, Q9NZN5-2 (Q9NZN5 other isoform, or with tags, fused parts or gaps): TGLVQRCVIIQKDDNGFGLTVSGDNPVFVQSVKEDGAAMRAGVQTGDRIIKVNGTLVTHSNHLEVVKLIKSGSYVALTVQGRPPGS
Chain of MAST2, Q6P0Q8 (Q6P0Q8 1099-1202): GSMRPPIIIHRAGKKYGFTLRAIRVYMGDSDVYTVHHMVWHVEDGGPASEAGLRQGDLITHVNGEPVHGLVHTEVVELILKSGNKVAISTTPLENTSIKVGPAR
Chain of LDB3, O75112 (O75112 1-94): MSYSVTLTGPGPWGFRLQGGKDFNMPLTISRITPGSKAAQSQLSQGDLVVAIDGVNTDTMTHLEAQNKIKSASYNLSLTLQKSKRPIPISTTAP
Chain of GIPC2, Q8TF65 (Q8TF65 112-203): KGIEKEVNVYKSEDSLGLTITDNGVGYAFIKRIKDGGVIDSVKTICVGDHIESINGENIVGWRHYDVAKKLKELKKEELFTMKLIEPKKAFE
Chain of SCRIB_1, Q14160 (Q14160 718-814): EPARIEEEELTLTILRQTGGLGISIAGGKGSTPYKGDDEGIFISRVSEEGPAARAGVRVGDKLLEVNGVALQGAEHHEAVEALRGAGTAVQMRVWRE

On to SSRTRRETQL [HPV16-E6_-2P, P03126], for which the pKd (usually −log10 of the Kd, conventionally taken in molar units) in the assay with PICK1, Q9NRD5 (setting [1]) is “below the threshold”; with GRIP1_4, Q9Y3R0 (setting [1]), “below the threshold”; in the assay with MPDZ_12, O75970 (setting [1]) it was “below the threshold”; in the assay with LDB3, O75112 (setting [1]) it was “below the threshold”; in the assay with PDLIM1, O00151 (setting [1]), “below the threshold”; with APBA2_1, Q99767 (setting [1]), “below the threshold”. Also, the pKd entry with ARHGEF11, O15085 (setting [1]) was “below the threshold”; with DLG2_2, Q15700 (setting [1]), “below the threshold”; in the assay with GRIP1_2, Q9Y3R0 (setting [1]) it was “below the threshold”; in the assay with Inadl_3, Q8NI35 (setting [1]) it was “below the threshold”; with MAST2, Q6P0Q8 (setting [1]) it was 3.79; in the assay with SNTA1, Q13424 (setting [1]) it was “below the threshold”. The pKd result is listed as “below the threshold” with GRIP2_7, Q9C0E4 (setting [1]); “below the threshold” in the assay with SIPA1L2, Q9P2F8 (setting [1]); “below the threshold” in the assay with PDZD7_3, Q9H5P4 (setting [1]); “below the threshold” with DLG2_3, Q15700 (setting [1]); “below the threshold” with LNX2_2, Q8N448 (setting [1]); “below the threshold” with Inadl_4, Q8NI35 (setting [1]). In addition, the pKd entry in the assay with GIPC2, Q8TF65 (setting [1]) is listed as “below the threshold”; in the assay with GRIP1_3, Q9Y3R0 (setting [1]), “below the threshold”; in the assay with SCRIB_1, Q14160 (setting [1]), “below the threshold”; in the assay with LNX1_2, Q8TBB1 (setting [1]) it was “below the threshold”; in the assay with PTPN13_1, Q12923 (setting [1]), “below the threshold”; with Inadl_1, Q8NI35 (setting [1]), “below the threshold”. In addition, the pKd entry is listed as “below the threshold” in the assay with HTRA2, O43464 (setting [1]) and “below the threshold” with ARHGEF12, Q9NZN5-2 (setting [1]).

For the molecule KRPEMTSSSV [MUC3A, MUC3B, Q02505;Q9H195], the pKd entry in the assay with LDB3, O75112 (setting [2]) was “below the threshold”; with PDLIM1, O00151 (setting [2]) it was “below the threshold”; with APBA2_1, Q99767 (setting [2]), “below the threshold”; in the assay with ARHGEF11, O15085 (setting [2]) it was 3.74; with DLG2_2, Q15700 (setting [2]), 3.54; with GRIP1_2, Q9Y3R0 (setting [2]), “below the threshold”. Moreover, the pKd entry in the assay with Inadl_3, Q8NI35 (setting [2]) is “below the threshold”; with MAST2, Q6P0Q8 (setting [2]), 4.77; in the assay with SNTA1, Q13424 (setting [2]) it was 1.76; with GRIP2_7, Q9C0E4 (setting [2]), “below the threshold”; with SIPA1L2, Q9P2F8 (setting [2]) it was “below the threshold”; in the assay with DLG2_3, Q15700 (setting [2]), 3.88. In addition, the pKd result in the assay with Inadl_4, Q8NI35 (setting [2]) was “below the threshold”; in the assay with GIPC2, Q8TF65 (setting [2]), 3.73; in the assay with GRIP1_3, Q9Y3R0 (setting [2]) it was “below the threshold”; in the assay with LNX1_2, Q8TBB1 (setting [2]), “below the threshold”; with Inadl_1, Q8NI35 (setting [2]), “below the threshold”; with HTRA2, O43464 (setting [2]) it was “below the threshold”.

For the molecule KSRVAFFEEL [NF2, P35240;P35240-1], the pKd entry with PICK1, Q9NRD5 (setting [2]) was “below the threshold”; with GRIP1_4, Q9Y3R0 (setting [2]), “below the threshold”; with MPDZ_12, O75970 (setting [2]), “below the threshold”; with ARHGEF11, O15085 (setting [2]) it was 4.32; in the assay with GRIP1_2, Q9Y3R0 (setting [2]), “below the threshold”; with Inadl_3, Q8NI35 (setting [2]), 4.28. For the same molecule, the pKd with MAST2, Q6P0Q8 (setting [2]) was 4.97; with SNTA1, Q13424 (setting [2]), “below the threshold”; with GRIP2_7, Q9C0E4 (setting [2]), “below the threshold”; in the assay with SIPA1L2, Q9P2F8 (setting [2]), “below the threshold”; with PDZD7_3, Q9H5P4 (setting [2]), 4.12; with DLG2_3, Q15700 (setting [2]), “below the threshold”. Besides, the pKd entry with LNX2_2, Q8N448 (setting [2]) is reported as “below the threshold”; with Inadl_4, Q8NI35 (setting [2]), “below the threshold”; in the assay with GRIP1_3, Q9Y3R0 (setting [2]), “below the threshold”; with LNX1_2, Q8TBB1 (setting [2]), “below the threshold”; with PTPN13_1, Q12923 (setting [2]), “below the threshold”; with Inadl_1, Q8NI35 (setting [2]) it was “below the threshold”. Further, the pKd in the assay with ARHGEF12, Q9NZN5-2 (setting [2]) was determined as 3.91.

For IDESKKEWLI [CNTNAP2, Q9UHC6], the pKd in the assay with PICK1, Q9NRD5 (setting [2]) is 4.19; in the assay with GRIP1_4, Q9Y3R0 (setting [2]) it was “below the threshold”; with MPDZ_12, O75970 (setting [2]), “below the threshold”; in the assay with LDB3, O75112 (setting [2]), “below the threshold”; with GOPC, Q9HD26, “below the threshold”; in the assay with PDLIM1, O00151 (setting [2]), “below the threshold”. In addition, the pKd entry with APBA2_1, Q99767 (setting [2]) was “below the threshold”; in the assay with ARHGEF11, O15085 (setting [2]), “below the threshold”; with DLG2_2, Q15700 (setting [2]) it was “below the threshold”; with GRIP1_2, Q9Y3R0 (setting [2]) it was “below the threshold”; in the assay with Inadl_3, Q8NI35 (setting [2]) it was 5.46; with MAST2, Q6P0Q8 (setting [2]) it was “below the threshold”. The negative-log Kd (pKd) result is “below the threshold” with SNTA1, Q13424 (setting [2]); 4.45 with GRIP2_7, Q9C0E4 (setting [2]); “below the threshold” with SIPA1L2, Q9P2F8 (setting [2]); “below the threshold” in the assay with PDZD7_3, Q9H5P4 (setting [2]); 3.57 in the assay with DLG2_3, Q15700 (setting [2]); 4.77 in the assay with LNX2_2, Q8N448 (setting [2]). Also, the pKd entry was “below the threshold” with Inadl_4, Q8NI35 (setting [2]); “below the threshold” with GIPC2, Q8TF65 (setting [2]); “below the threshold” in the assay with GRIP1_3, Q9Y3R0 (setting [2]); “below the threshold” with SCRIB_1, Q14160 (setting [2]); 3.66 in the assay with LNX1_2, Q8TBB1 (setting [2]); “below the threshold” with PTPN13_1, Q12923 (setting [2]). In addition, the pKd in the assay with Inadl_1, Q8NI35 (setting [2]) was 3.93; with HTRA2, O43464 (setting [2]) it was 3.49; with ARHGEF12, Q9NZN5-2 (setting [2]), “below the threshold”.
